This series can be described thus: protein stability index of a GFP-peptide fusion (GPS, HEK-293T) (PSI 1-6); higher = more stable.
[1] abbreviates: treatment: DMSO, c terminus: a fixed tail appended.
[2] abbreviates: treatment: MLN4924 1 uM, 8 h, c terminus: a fixed tail appended.
The mark [3] stands for this setting: treatment: DMSO, c terminus: native.
The mark [4] stands for this setting: treatment: MLN4924 1 uM, 8 h, c terminus: native.

± gives the standard deviation.
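Further: 24-mer peptide tiles fused after GFP, lentivirally expressed, FACS-sorted into six equal bins by GFP/DsRed ratio, decoded by Illumina sequencing, PSI is the read-weighted mean bin number.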

AACLLQLKGVKQACCEFLESQLDP [KLHL12]: the protein stability index under setting [1] came to 2.97 ± 0.45 and the protein stability index under setting [2] turned out to be 2.88 ± 0.33.
For the sequence AADRHINFCKEQAARISNKGKFST [ZC2HC1A], the protein stability index reads like this: under setting [1], 2.57 ± 0.28; under setting [2], 2.85 ± 0.14.
AAEVGTGQYATTKGISQTNLITTV [EPB41L3] returned a protein stability index under setting [1] of 3.54 ± 0.13 and a protein stability index under setting [2] of 3.5 ± 0.41.
Take AAFVRAQADLLAHLVPEPDRLEEQ [DNAAF3]: the protein stability index reads like this: under setting [1], 4.05 ± 0.13; under setting [2], 4.12 ± 0.29.
AAGIGKLSTADGKAFADPEVLRRL [ANKRD17]: the protein stability index is, setting by setting: under setting [1], 4.2 ± 0.15; under setting [2], 4.19 ± 0.41.
On to AAGVDHVILAVSYMSQVLEKEMKA [GMPPB], for which the protein stability index under setting [1] amounted to 2.25 ± 0.62 and the protein stability index under setting [2] worked out at 2.44 ± 0.23.
As to AALCLEVTLKTAVDGPDLEMLTGQ [FKBP8], the protein stability index by setting is: under setting [1], 2.47 ± 0.38; under setting [2], 2.49 ± 0.091.
Turning to ACGGLDNKCSVYPLTFDKNENMAA [GNB5], the protein stability index reads like this: under setting [1], 3.69 ± 0.093; under setting [2], 3.43 ± 0.41.
In the same order, the values of ACTRSLLGDPPPLLTLPRPPLSGA [HDAC6] are 3.44 ± 0.37 and 3.58 ± 0.26.
With ADQTVLTEDEKKELENLAAMDLEL [CHGB], the protein stability index under setting [1] came to 5.6 ± 0.28 and the protein stability index under setting [2] worked out at 5.61 ± 0.16.
Taken in the same sequence, the figures for ADRIIEVDMECQTDAFLDRPPTPL [RSPH3] were 4.3 ± 0.29 and 4.25 ± 0.28.
As for ADSETPTIQKGSYTFVPWLLSFKR [TNFSF13B], the protein stability index is 2.52 ± 0.28 under setting [1] and 2.58 ± 0.26 under setting [2].
In the case of ADWWQEPDAKGDEAEAEPEPELA [P3H4], the protein stability index under setting [3] was found to be 5.67 ± 0.21 and the protein stability index under setting [4] stood at 5.42 ± 0.31.
Turning to AEEAEILHSACGLSKDHQEVETEG [TOR1AIP2], the protein stability index is, setting by setting: under setting [1], 5.45 ± 0.33; under setting [2], 5.72 ± 0.24.
For AEKIEYNESMKAYHNSPAYLAYIN [SMARCE1], the protein stability index under setting [1] worked out at 3.31 ± 0.5 and the protein stability index under setting [2] is 3.46 ± 0.31.
Regarding AEMLGSVVGNWQYFFPVIFSKASD [MAGEA6], the protein stability index under setting [1] was 2.37 ± 0.31 and the protein stability index under setting [2] was 2.31 ± 0.31.
With AEMLRFGDRMFYRDWWNSTSFSNY [SOAT2], the protein stability index reads like this: under setting [1], 2.28 ± 0.52; under setting [2], 2.02 ± 0.041.
For the sequence AFEESKIDEHHFVAVALRKPDGSR [AASDHPPT], the protein stability index runs as follows: under setting [1], 4.01 ± 0.52; under setting [2], 4.2 ± 0.53.
AFFASHQCSNRIGSMKIKSSWDID [FBXO34] had a protein stability index under setting [1] of 2.46 ± 0.15 and a protein stability index under setting [2] of 2.42 ± 0.17.
Taken in the same sequence, the figures for AFGNPKFALQGLPLNCAPCPRRSE [IRX6] were 4.202 ± 0.038 and 4.08 ± 0.13.
AFNFLLVWYYCTLTIRESILINNG [TMEM120A] yielded a protein stability index under setting [1] of 2.87 ± 0.055 and a protein stability index under setting [2] of 3.15 ± 0.51.
With AFTMEQVRTLEGVFQHHQYLSPLE [VENTX], the protein stability index was 2.83 ± 0.16 under setting [1] and 2.28 ± 0.23 under setting [2].
As for AGAGGSGSRISVSRSTSFRGGMGS [KRT18], the protein stability index was 3.88 ± 0.21 under setting [1] and 3.79 ± 0.28 under setting [2].
Regarding AGKEAMTSDGYTALHLAARNGHLA [RIPK4], the protein stability index was found to be 3.43 ± 0.69 under setting [1] and 3.85 ± 0.36 under setting [2].
AGLCMDSPSPMDPHMAEQTFEQAI [CDC25B]: the protein stability index runs as follows: under setting [1], 4.5 ± 0.47; under setting [2], 4.6 ± 0.15.
Taken in the same sequence, the figures for AGSHQYPGRGVYLLKFDNSYSLWR [ACBD3] were 2.43 ± 0.25 and 2.22 ± 0.29.
In the same order, the values of AGYRLGPAQPGADSSFPPALAEGY [TBX6] are 3.45 ± 0.38 and 3.62 ± 0.23.
Regarding AHLAAEVEGKCLQSGFEMLKDVKS [TRIM39], the protein stability index reads like this: under setting [1], 4.17 ± 0.22; under setting [2], 4.62 ± 0.28.
Sequence AIDLNKKGKDNKHPMYRRLVHSAV [ZMYND11] came in with a protein stability index under setting [1] of 2.46 ± 0.41 and a protein stability index under setting [2] of 2.92 ± 0.38.
Take AIPTKKSLPSPSSSGHQNRRFSSE [FBF1]: the protein stability index was 4.82 ± 0.27 under setting [1] and 4.9 ± 0.15 under setting [2].
For the sequence AISSPTVSRLTDTTKFTGSHKERF [TPPP], the protein stability index was 4.17 ± 0.26 under setting [1] and 4.29 ± 0.12 under setting [2].
For the sequence AKDEDQWTALHFAAQNGDESSTRL [RIPK4], the protein stability index is, setting by setting: under setting [1], 4.54 ± 0.95; under setting [2], 5.086 ± 0.023.
In the same order, the values of AKGASLFTCDLQHTETGEEVLRMC [VPS39] are 3.69 ± 0.055 and 3.73 ± 0.33.
On to AKLALYPCASLLAFASTCLLSRFS [TMEM175], for which the protein stability index is 2.45 ± 0.49 under setting [1] and 2.52 ± 0.52 under setting [2].
For the sequence AKSVLKERGLKKIRLGIEGYPTYK [BTBD10], the protein stability index is, setting by setting: under setting [1], 2.79 ± 0.23; under setting [2], 2.8 ± 0.44.
As for ALLITLIVVATLPIPVVFVLRHFH [SLC6A17], the protein stability index under setting [1] worked out at 2.73 ± 0.52 and the protein stability index under setting [2] came to 2.33 ± 0.45.
Taken in the same sequence, the figures for ANGSEIHKHVHFSSSFTSIASEWF [SLC22A15] were 2.44 ± 0.32 and 2.39 ± 0.36.
As for APDKTSTVLTRHSQPATPTPLQSR [PDLIM7], the protein stability index came out at 4.68 ± 0.17 under setting [1] and 4.82 ± 0.23 under setting [2].
As to APHQQPPAPPSDALLDLHFPSDHL [TFE3], the protein stability index under setting [1] is 4.65 ± 0.087 and the protein stability index under setting [2] came to 4.77 ± 0.057.
For the sequence APVAEAWIPQAGPPELNYGATGEC [ZNF449], the protein stability index under setting [1] amounted to 4.78 ± 0.12 and the protein stability index under setting [2] stood at 4.88 ± 0.33.
With AQRVRAAMFPETLDEGMQIPSTQF [CTNNB1], the protein stability index runs as follows: under setting [1], 3.62 ± 0.23; under setting [2], 3.65 ± 0.16.
In the same order, the values of AQVRKLELERAQHELLLGSLQQQH [FBF1] are 3.62 ± 0.18 and 3.71 ± 0.17.
As for ARFGSGPCKTRDDEPVCGRPLGIR [APMAP], the protein stability index by setting is: under setting [1], 3.75 ± 0.28; under setting [2], 3.87 ± 0.35.
As to ARLTYSIVGNQVQGAPASSFVYVN [PCDHGC5], the protein stability index was determined as 2.38 ± 0.39 under setting [1] and 2.19 ± 0.26 under setting [2].
Sequence ARLVFVPLLLLCNIKPRRYLTVVF [SLC29A1] returned a protein stability index under setting [1] of 2.92 ± 0.51 and a protein stability index under setting [2] of 2.91 ± 0.87.
Sequence ARMLREYQELMSLKLALDMEIATY [KRT71] came in with a protein stability index under setting [1] of 2.19 ± 0.62 and a protein stability index under setting [2] of 2.44 ± 0.21.
In the case of ARTQMILLRRSVEGASSDNGCEVK [PHTF1], the protein stability index reads like this: under setting [1], 3.68 ± 0.24; under setting [2], 3.98 ± 0.2.
Consider ASIHWDWKIALLFVAFALCMFCLY [SLC35F2], for which the protein stability index stood at 2.17 ± 0.36 under setting [1] and 2.26 ± 0.24 under setting [2].
On to ASPMSADRVVAFMDHIRIFQEQVE [NR2F2], for which the protein stability index is, setting by setting: under setting [1], 2.8 ± 0.44; under setting [2], 3.1 ± 0.29.
Taken in the same sequence, the figures for ASTVTEIVKQQDPLVYKAIQQGIN [ACSBG2] were 3.49 ± 0.3 and 3.96 ± 0.35.
As for ATIENNRVILEIDNARLAVDDFRL [KRT13], the protein stability index is, setting by setting: under setting [1], 2.15 ± 0.16; under setting [2], 2.31 ± 0.35.
For ATSLFVELDEEEVKAATTEPTEVE [BCL2L13], the protein stability index is, setting by setting: under setting [1], 5.48 ± 0.4; under setting [2], 5.62 ± 0.12.
Regarding ATTIDNSRVILEIDNARLAADDFR [KRT15], the protein stability index reads like this: under setting [1], 3.7 ± 0.31; under setting [2], 3.74 ± 0.3.
In the same order, the values of AVAVDVAVPKRLLEIVGREGVSLT [HAGHL] are 2.84 ± 0.23 and 2.84 ± 0.19.
Consider AVEISDHPGEHEVGEPEFHYIAGA [CPXM2], for which the protein stability index runs as follows: under setting [1], 4.82 ± 0.57; under setting [2], 5.17 ± 0.32.
Turning to AVGYQPEYSKFCRMSYQDPAQLSC [NFE2L1], the protein stability index under setting [1] amounted to 2.63 ± 0.41 and the protein stability index under setting [2] was 2.2 ± 0.44.
AVLASCSQYFRSLFSSHPPLGGGV [KLHL14]: the protein stability index is, setting by setting: under setting [1], 2.4 ± 0.37; under setting [2], 2.22 ± 0.22.
As for AVMEHAESKMYATSPYSDPVVSMD [PTPRD], the protein stability index was 4.3 ± 0.36 under setting [1] and 4.24 ± 0.53 under setting [2].
Take CCEVETIRRAYPDANLLNDRVLRA [CCND1]: the protein stability index runs as follows: under setting [1], 2.86 ± 0.42; under setting [2], 2.95 ± 0.23.
As to CFSVSMLAGPNDRSDVEKGGKIIM [UFD1], the protein stability index is, setting by setting: under setting [1], 2.92 ± 0.48; under setting [2], 3.2 ± 0.52.
On to CILVEMHTGEPLFSGSNEVDQMNR [DYRK1B], for which the protein stability index came to 2.58 ± 0.07 under setting [1] and 2.58 ± 0.22 under setting [2].
For the sequence CKIRIQRQLEIMGKEVSGDQIEDM [STX11], the protein stability index turned out to be 4.01 ± 0.2 under setting [1] and 3.94 ± 0.12 under setting [2].
Regarding CKLILSLEPDEDPLCMLLLIDHLA [TCF25], the protein stability index is, setting by setting: under setting [1], 2.82 ± 0.53; under setting [2], 2.95 ± 0.79.
CKVDCEANLTPNVGGYFVDKFVAT [P3H4] registered a protein stability index under setting [1] of 2.84 ± 0.23 and a protein stability index under setting [2] of 2.55 ± 0.29.
CLRILMGELSNHHDHHDEFCLMP [BEX3]: the protein stability index is, setting by setting: under setting [3], 2.58 ± 0.69; under setting [4], 2.27 ± 0.15.
With CLRRCKRTLPAFQVPYPPRQLLRD [P3H4], the protein stability index by setting is: under setting [1], 2.16 ± 0.24; under setting [2], 2.27 ± 0.24.
As to CLVCQASFCELHLKPHLEGAAFRD [TRIM29], the protein stability index turned out to be 3.68 ± 0.32 under setting [1] and 3.67 ± 0.43 under setting [2].
Turning to CMVCKKKIGNSAFARYPNGVVVHY [VPS39], the protein stability index was 2.37 ± 0.17 under setting [1] and 2.51 ± 0.41 under setting [2].
With CPQCGKCFARKSQLTGHQRIHSGE [ZNF449], the protein stability index is, setting by setting: under setting [1], 5.1 ± 0.3; under setting [2], 5.16 ± 0.087.
For the sequence CRLDYRRPENRSFYLALYKQMSFL [TCF25], the protein stability index runs as follows: under setting [1], 2.33 ± 0.6; under setting [2], 2.28 ± 0.66.
Turning to CRYLNFTKGEEISVYVKLAGERED [MIA2], the protein stability index under setting [1] amounted to 2.52 ± 0.26 and the protein stability index under setting [2] is 2.77 ± 0.22.
Turning to CSLDKRVILIFHCEFSSERGPRMC [CDC25B], the protein stability index reads like this: under setting [1], 2.28 ± 0.63; under setting [2], 2.54 ± 0.83.

For the origin of these results see the supplement of paper PMC10567573.
